Measured values from paper PMC3763555 (Nucleic Acids Research, 2013).

How the values were obtained:
drRecO K43E/K72E;drRecR = biological target: T1, drRecO K43E/K72E;drRecR (Deinococcus radiodurans;Deinococcus …, UniProt Q9RW50;Q9ZNA2 1-244;1-220, K43E;K72E|); experiment: fluorescence anisotropy
T1 sequence 1: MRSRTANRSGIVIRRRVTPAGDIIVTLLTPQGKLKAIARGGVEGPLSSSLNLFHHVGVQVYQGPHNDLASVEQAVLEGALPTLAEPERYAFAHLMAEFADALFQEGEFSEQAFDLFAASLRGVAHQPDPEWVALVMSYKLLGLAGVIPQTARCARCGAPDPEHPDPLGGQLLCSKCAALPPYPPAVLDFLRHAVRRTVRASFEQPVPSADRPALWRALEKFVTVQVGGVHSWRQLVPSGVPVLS
T1 sequence 2: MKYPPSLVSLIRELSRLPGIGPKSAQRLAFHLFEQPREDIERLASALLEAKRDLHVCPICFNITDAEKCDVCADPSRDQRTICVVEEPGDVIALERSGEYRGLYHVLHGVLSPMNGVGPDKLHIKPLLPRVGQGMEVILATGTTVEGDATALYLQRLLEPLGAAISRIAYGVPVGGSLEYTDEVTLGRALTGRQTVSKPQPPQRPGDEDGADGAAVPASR

drRecO K72E/Q73E;drRecR = biological target: T2, drRecO K72E/Q73E;drRecR (Deinococcus radiodurans;Deinococcus …, UniProt Q9RW50;Q9ZNA2 1-244;1-220, K72E;Q73E|); experiment: fluorescence anisotropy
T2 sequence 1: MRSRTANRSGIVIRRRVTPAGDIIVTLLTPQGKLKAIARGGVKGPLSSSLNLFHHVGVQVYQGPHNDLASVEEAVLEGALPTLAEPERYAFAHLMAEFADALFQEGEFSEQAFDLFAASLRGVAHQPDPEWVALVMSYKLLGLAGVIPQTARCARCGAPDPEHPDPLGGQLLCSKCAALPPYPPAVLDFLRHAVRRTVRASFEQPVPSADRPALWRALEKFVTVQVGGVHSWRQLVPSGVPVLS
T2 sequence 2: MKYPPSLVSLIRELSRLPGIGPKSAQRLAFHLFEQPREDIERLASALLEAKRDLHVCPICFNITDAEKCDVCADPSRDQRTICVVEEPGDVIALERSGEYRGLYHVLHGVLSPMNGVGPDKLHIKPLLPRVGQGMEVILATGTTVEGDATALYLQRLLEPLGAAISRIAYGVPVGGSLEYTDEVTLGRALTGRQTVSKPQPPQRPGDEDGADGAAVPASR

drRecO Q59E;drRecR = biological target: T3, drRecO Q59E;drRecR (Deinococcus radiodurans;Deinococcus …, UniProt Q9RW50;Q9ZNA2 1-244;1-220, Q59E|); experiment: fluorescence anisotropy
T3 sequence 1: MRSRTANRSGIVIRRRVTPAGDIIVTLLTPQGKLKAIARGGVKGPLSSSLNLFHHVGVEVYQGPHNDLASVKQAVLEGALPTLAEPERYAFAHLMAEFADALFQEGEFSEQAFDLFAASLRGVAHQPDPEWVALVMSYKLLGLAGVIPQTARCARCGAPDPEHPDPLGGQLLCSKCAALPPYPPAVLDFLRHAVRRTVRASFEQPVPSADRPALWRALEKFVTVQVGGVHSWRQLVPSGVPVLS
T3 sequence 2: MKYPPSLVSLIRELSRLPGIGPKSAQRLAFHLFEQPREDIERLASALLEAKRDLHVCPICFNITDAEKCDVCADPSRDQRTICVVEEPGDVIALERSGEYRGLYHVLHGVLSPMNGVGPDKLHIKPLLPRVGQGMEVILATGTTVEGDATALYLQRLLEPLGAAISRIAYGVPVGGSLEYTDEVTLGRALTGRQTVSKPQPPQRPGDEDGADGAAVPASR

drRecO = biological target: T4, drRecO (Deinococcus radiodurans, UniProt Q9RW50 1-244); experiment: fluorescence anisotropy
T4 sequence: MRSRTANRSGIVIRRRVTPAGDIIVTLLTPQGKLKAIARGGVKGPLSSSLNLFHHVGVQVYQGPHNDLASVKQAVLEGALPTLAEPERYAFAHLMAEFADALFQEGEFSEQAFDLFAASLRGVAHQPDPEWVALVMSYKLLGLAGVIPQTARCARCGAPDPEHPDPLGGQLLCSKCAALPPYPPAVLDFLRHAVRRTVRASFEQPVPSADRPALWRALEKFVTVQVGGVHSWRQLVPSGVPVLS

drRecO;drRecR K23E/R27E = biological target: T5, drRecO;drRecR K23E/R27E (Deinococcus radiodurans;Deinococcus …, UniProt Q9RW50;Q9ZNA2 1-244;1-220, |K23E;R27E); experiment: fluorescence anisotropy
T5 sequence 1: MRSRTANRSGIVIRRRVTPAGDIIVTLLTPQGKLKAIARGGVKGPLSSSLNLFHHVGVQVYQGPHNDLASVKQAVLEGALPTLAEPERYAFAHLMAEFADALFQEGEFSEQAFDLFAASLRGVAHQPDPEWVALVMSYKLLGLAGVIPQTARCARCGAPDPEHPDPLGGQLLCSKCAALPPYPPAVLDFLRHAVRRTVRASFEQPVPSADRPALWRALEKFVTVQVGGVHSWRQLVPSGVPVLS
T5 sequence 2: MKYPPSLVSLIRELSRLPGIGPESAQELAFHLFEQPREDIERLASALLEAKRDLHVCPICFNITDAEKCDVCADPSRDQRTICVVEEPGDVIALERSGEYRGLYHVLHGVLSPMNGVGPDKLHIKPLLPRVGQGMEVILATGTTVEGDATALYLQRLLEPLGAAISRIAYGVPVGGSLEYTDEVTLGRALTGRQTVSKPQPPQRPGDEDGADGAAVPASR

drRecR = biological target: T6, drRecR (Deinococcus radiodurans, UniProt Q9ZNA2 1-220); experiment: fluorescence anisotropy
T6 sequence: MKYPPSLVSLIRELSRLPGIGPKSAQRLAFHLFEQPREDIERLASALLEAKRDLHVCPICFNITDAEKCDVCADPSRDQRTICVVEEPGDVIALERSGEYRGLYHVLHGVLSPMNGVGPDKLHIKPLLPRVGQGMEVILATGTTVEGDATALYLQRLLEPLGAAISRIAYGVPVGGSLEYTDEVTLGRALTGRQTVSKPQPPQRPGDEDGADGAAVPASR

[1] = biological target: T7, Deinococcus radiodurans RecO, N-terminal hexa-histidine tag (Deinococcus radiodurans, UniProt Q9RW50 1-244); experiment: crystal structure
T7 sequence (looked up): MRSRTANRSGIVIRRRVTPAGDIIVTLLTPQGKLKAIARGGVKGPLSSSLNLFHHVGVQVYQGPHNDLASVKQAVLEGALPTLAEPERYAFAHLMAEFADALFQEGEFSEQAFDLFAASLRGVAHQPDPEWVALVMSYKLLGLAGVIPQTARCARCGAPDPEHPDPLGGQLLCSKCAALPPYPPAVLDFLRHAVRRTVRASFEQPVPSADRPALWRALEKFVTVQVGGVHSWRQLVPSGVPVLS

crystal structure = biological target: the molecule itself; experiment: crystal structure
SAXS = biological target: the molecule itself; experiment: SAXS
[2] = biological target: T8, Deinococcus radiodurans RecO, C-terminal hexa-histidine tag (Deinococcus radiodurans, UniProt Q9RW50 1-244); experiment: SAXS
T8 sequence (looked up): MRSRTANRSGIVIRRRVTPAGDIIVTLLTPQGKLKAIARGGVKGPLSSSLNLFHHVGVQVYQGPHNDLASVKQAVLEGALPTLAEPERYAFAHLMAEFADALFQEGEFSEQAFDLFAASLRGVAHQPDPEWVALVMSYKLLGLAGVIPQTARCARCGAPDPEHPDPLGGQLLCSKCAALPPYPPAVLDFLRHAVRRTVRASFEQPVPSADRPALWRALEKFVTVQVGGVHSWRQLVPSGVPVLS

## TTTTTTTTTTTTTTTTTTTTTTTTTTTTTTTTTTTTTTTTTTTTTTTTTT (ssDNA) [50mer poly(dT) ssDNA]
drRecO K43E/K72E;drRecR
  binding result: binds
drRecO K72E/Q73E;drRecR
  binding result: binds
drRecO Q59E;drRecR
  binding result: no binding
drRecO
  Kd: 8.7 µM
drRecO;drRecR K23E/R27E
  binding result: no binding
drRecR
  binding result: no binding

B1: Deinococcus radiodurans RecR K23A/R27A double mutant (natural protein, UniProt Q9ZNA2 1-220, looked up)
chain: MKYPPSLVSLIRELSRLPGIGPASAQALAFHLFEQPREDIERLASALLEAKRDLHVCPICFNITDAEKCDVCADPSRDQRTICVVEEPGDVIALERSGEYRGLYHVLHGVLSPMNGVGPDKLHIKPLLPRVGQGMEVILATGTTVEGDATALYLQRLLEPLGAAISRIAYGVPVGGSLEYTDEVTLGRALTGRQTVSKPQPPQRPGDEDGADGAAVPASR
[1]
  binding result: binds
Crystal structure
  stoichiometry N: 4

B2: Deinococcus radiodurans RecR, full length, without tag (natural protein, UniProt Q9ZNA2 1-220, looked up)
chain: MKYPPSLVSLIRELSRLPGIGPKSAQRLAFHLFEQPREDIERLASALLEAKRDLHVCPICFNITDAEKCDVCADPSRDQRTICVVEEPGDVIALERSGEYRGLYHVLHGVLSPMNGVGPDKLHIKPLLPRVGQGMEVILATGTTVEGDATALYLQRLLEPLGAAISRIAYGVPVGGSLEYTDEVTLGRALTGRQTVSKPQPPQRPGDEDGADGAAVPASR
SAXS
  stoichiometry N: 2

B3: Deinococcus radiodurans RecR, full length, C-terminal hexa-histidine tag (natural protein, UniProt Q9ZNA2 1-220, looked up)
chain: MKYPPSLVSLIRELSRLPGIGPKSAQRLAFHLFEQPREDIERLASALLEAKRDLHVCPICFNITDAEKCDVCADPSRDQRTICVVEEPGDVIALERSGEYRGLYHVLHGVLSPMNGVGPDKLHIKPLLPRVGQGMEVILATGTTVEGDATALYLQRLLEPLGAAISRIAYGVPVGGSLEYTDEVTLGRALTGRQTVSKPQPPQRPGDEDGADGAAVPASR
[2]
  binding result: binds

B4: 50mer dsDNA (dsDNA)
DNA 1: GACTACGTACTGTTACGGCTCCATCTCTACCGCAATCAGGCCAGATCTGC
DNA 2: GCAGATCTGGCCTGATTGCGGTAGAGATGGAGCCGTAACAGTACGTAGTC
drRecO Q59E;drRecR
  binding result: no binding
drRecO;drRecR K23E/R27E
  binding result: no binding
drRecR
  binding result: no binding
